Laboratory results from patent US20200239597A1, “AN ANTI-APOPTOTIC FUNCTION OF PKM2 AND INTRACELLULARLY EXPRESSED SCFV ANTIBODIES” (La Jolla Institute for Allergy and Immunology, priority 2017, published 2020).

Columns and labels:
[1] = system: endogenous PKM2, Bim EL and L isoforms; experiment: Expression of endogenous PKM2 and Bim isoforms in 293T cells; type: cell-based, human
[2] = target: T1, PKM2 (K422R) (Homo sapiens, UniProt P14618, K422R); experiment: Pyruvate kinase assay, PKM2 (K422R); type: biochemical
T1 construct: His; made in house; host or cells: Escherichia coli BL21(DE3) (stated generally for WT and mutant PKM2)
Protocol: (§1) Activity was measured by Kinase-Glo® Plus Luminescent Kinase Assay kit (promega), using ADP and PEP as substrates), with PKM2 at 50 nM. Shown are values with the basal activity of PKM2 alone subtracted out.
(§2) Pyruvate kinase activity was measured by using Kinase-Glo® Plus Luminescent Kinase Assay kit (Promega). 50-100 nM of purified WT or mutant PKM2 was added in 100 μl assay buffer containing 50 mM Tris pH7.5, 100 mM KCl, 10 mM MgCl2, 200 μM PEP, 200 μM ADP, and 3% DMSO. After a 15-min incubation, Kinase-Glo Plus™ reagent (Promega Corporation, Madison, Wis., USA) was added, according to the manufacturer's instructions. In some cases, 0-40 μM fructose 1,6-bisphosphate (FBP) and 0-150 nM scFv 5 were added.

[3] = target: T2, PKM2 (K270M) (Homo sapiens, UniProt P14618, K270M); experiment: Pyruvate kinase assay, PKM2 (K270M); type: biochemical; conditions: high concentrations of scFv 5
T2 construct: His (N); made in house; host or cells: Escherichia coli BL21(DE3)
Protocol: as §1, §2

[4] = system: Bcl-2 family proteins; experiment: Immunoblots of Bcl-2 family proteins; type: cell-based, human; conditions: alone or in combination; TEPP-46 27 μM
Protocol: Levels of several Bcl-2 family proteins were unchanged following IB5 expression or incubation with TEPP-46, or both. Cell lysates from 293T cells infected with and without IB5 and incubated with and without TEPP-46 (27 μM) were separated on SDS-12% polyacrylamide gels. Bcl-2 family proteins were detected by immunoblotting. The bands were quantified using ImageJ and normalized to the control cell lysate on the leftmost lane.
293T cells were washed with PBS and lysed with PBS containing 1% NP-40. Protein concentration was determined using Pierce™ BCA reagent (ThermoFisher; 23221, 23224). 35 μg protein was loaded in each lane of 12% SDS-PAGE gels. Proteins were transferred to nitrocellulose membrane and immunoblotted with the following primary antibodies: anti-Bax antibody (Santa Cruz N20), anti-Bak antibody (Cell Signaling 3814), anti-Bid antibody (R&D Systems AF860), anti-Bim antibody (Sigma B7929), anti-Puma antibody (Cell Signaling 4976), anti-Bcl-2 antibody (Abcam 32124), anti-Bcl-xL antibody (Cell Signaling 2764) and anti-Mcl-1 (Santa Cruz S19) at 1:1000 dilution. The secondary anti-rabbit and mouse antibodies, conjugated with HRP, were obtained from Santa Cruz and were used at 1:2000 dilution. The luminescence signal was detected using ECL reagent (ThermoFisher 32106).

[5] = system: 293T cells; experiment: Clonogenic survival assay after BimS transfection, 293T cells; type: cell-based, human; conditions: 293T cells
Protocol: Control 293T or IB5-expressing cells were incubated with or without 27 µg/ml TEPP-46 for 3 h, then transfected with BimS cDNA in a further 24-h incubation also including TEPP-46 or vehicle. The plates were fixed and stained with crystal violet after 1 week. The total area of colonies (a measure of the total mass of proliferating cells) formed in each well from were quantified using ImageJ software; mean±SEM are shown from 3 independent experiments.
Cell viability was measured with a Countess™ Automated Cell Counter (Invitrogen) using trypan blue. For the clonogenic survival assay, 293T or MEFs cells were seeded in 6-well plates at 1×10^5 cells/well in a 2-ml volume, transfected with BimS cDNA and incubated for 24 h. Afterwards, the medium was replaced and the cells cultured for 3-4 days. Thereafter, the plates were rinsed with PBS and fixed and stained with a solution containing crystal violet (0.5% w/v) and glutaraldehyde (6% v/v) as described (Franken et al., 2006).

[6] = target: T3, pyruvate kinase M2 (PKM2) (Homo sapiens, UniProt P14618); experiment: Target protein immunoprecipitation (FLAG pull-down, mass spectrometry, immunoblot); type: binding; conditions: Triton X-100 extracts of 293T cells, anti-FLAG beads
T3 construct: some intrabodies precipitated specific cellular proteins; endogenous in cells; host or cells: HEK293T (293T)
Protocol: FIG. 1 C is a photograph of a non-limiting SDS-PAGE gel with silver stain from an immunoprecipitation assay using antibodies encoded by DNA sequences isolated from FIG. 1B. […] Intrabodies that rescued cells from BimS-induced death were chosen for pull-down analysis as described in Methods. Left panel: Triton™-X-100 (1%) cell extracts were incubated with anti-FLAG beads, then proteins eluted with 3×FLAG peptide and separated by SDS-PAGE with silver stain. Specific bands are marked with dots; some bands (e.g. at 37 and 70 kD) are nonspecific. […] The bands near 25 kD are the scFv polypeptides, whose expression levels varied.
Flag-tagged intrabody was introduced along with a tandem Strep-tag by PCR into the same lentiviral vector used for selection. 293T cells infected with the intrabody lentivirus were incubated at 30° C. for 72 h as described above. After washing with cold PBS, 5×10^8 cells were lysed for 15 minutes on ice in lysis buffer (50 mM Tris HCl, pH 7.4, 150 mM NaCl, 1 mM EDTA, 1% Triton™ X-100). Cell lysates were clarified by centrifugation for 15 minutes at 4° C. at 16,000×g. The total protein content of the soluble fraction was quantified using the BCA assay. For pull-down experiments, 10 mg of protein lysate was incubated with 200 al of EZview™ Red anti-FLAG® M2 Affini-ty Gel (Sigma-Aldrich) for 2 h at 4° C. Beads were washed 3 times in wash buffer (50 mM Tris HCl, pH 7.4, 150 mM NaCl, 1 mM EDTA, 0.1% Triton X-100). Elution was performed under native conditions by competition with 3×FLAG peptide following the manufacturer's protocol. Eluates were used for the second step purification using Strep-Tactin Superflow Plus™ [Qiagen], following the manufacturer's instructions. The final two-step purified protein was used for SDS-PAGE analysis. Bands of interest were cut out from the gel and subjected to in-gel digestion with trypsin (Promega, Fitchburg, Wis., USA) followed by MALDI TOF/TOF mass spectrometry analysis (Biomolecular and Proteomics Mass Spectrometry Facility, University of California at San Diego).

[7] = system: MDA-MB231-LM2; experiment: Clonogenic rescue from BimS-induced death, MDA-MB231-LM2; type: cell-based; conditions: lung metastatic derivative MDA-MB231-LM2
Protocol: Control or IB5-expressing cells were transfected with BimS cDNA. The plates were fixed and stained with crystal violet after 12 days and the total areas of colonies were measured. Mean, SD and P values were calculated from 3 individual plates.

T1 sequence (P14618 whole entry K422R): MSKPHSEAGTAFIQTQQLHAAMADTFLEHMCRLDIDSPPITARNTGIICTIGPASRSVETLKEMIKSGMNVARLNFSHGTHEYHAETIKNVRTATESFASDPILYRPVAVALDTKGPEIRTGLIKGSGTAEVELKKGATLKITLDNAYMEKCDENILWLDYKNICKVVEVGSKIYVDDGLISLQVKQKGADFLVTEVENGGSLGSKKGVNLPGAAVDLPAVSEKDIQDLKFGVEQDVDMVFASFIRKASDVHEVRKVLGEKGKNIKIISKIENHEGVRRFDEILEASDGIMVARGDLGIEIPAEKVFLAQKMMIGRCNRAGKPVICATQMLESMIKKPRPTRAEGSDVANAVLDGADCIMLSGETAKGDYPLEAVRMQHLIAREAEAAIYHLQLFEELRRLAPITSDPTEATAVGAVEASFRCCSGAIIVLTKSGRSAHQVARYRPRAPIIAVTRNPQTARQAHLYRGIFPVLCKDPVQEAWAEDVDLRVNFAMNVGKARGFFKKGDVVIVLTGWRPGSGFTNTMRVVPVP
T2 sequence (P14618 whole entry K270M): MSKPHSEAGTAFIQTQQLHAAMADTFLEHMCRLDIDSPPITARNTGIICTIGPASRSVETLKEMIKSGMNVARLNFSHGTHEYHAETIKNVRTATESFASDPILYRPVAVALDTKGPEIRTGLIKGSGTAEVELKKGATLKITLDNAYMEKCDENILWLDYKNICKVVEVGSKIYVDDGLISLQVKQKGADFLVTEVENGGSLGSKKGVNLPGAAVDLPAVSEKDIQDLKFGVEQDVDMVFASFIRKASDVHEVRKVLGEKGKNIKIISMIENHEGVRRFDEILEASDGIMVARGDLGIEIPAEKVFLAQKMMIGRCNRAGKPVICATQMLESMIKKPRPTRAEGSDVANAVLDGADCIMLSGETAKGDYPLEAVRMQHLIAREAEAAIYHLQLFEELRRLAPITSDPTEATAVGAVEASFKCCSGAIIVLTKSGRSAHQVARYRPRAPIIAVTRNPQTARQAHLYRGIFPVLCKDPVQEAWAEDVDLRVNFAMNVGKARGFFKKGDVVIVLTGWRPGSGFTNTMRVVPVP
T3 sequence (P14618 whole entry): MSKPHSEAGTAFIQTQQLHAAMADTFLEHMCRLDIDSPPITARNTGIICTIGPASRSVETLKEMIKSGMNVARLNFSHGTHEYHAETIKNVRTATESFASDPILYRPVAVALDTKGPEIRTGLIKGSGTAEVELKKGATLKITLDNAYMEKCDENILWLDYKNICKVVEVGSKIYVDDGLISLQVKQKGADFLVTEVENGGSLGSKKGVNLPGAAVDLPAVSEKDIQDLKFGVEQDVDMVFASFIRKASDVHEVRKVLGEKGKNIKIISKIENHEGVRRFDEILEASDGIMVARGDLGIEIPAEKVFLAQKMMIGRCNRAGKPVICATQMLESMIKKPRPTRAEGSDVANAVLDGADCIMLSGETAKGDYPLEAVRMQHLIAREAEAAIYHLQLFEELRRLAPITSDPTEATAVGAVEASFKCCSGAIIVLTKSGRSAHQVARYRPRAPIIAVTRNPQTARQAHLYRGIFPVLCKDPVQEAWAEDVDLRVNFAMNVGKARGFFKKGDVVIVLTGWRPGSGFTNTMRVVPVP

B1: IB5: intracellularly expressed single-chain antibody (scFv) specific for PKM2, SEQ ID NO: 2; also made as monovalent recombinant scFv in E. coli (protein)
scFv: MAQVQLVETGPGLVKPSETLSLRCTVSGGSFDNYYWNWIRQPPGKGLEYIGYVFPSTGATNYNPSLGSRVTISLDTSKNQFSLTLTSVTTADTAIYYCVRSGHDLWTGSTWFDPWGQWTTVTVSSGGGGSGGGGSGGGGSEIVLTQSPGTLSLSPGERATLSCRASQSVSSSYLAWYQQKPGQAPRLLIYGASSRATGIPDRFSGSGSGTDFTLTISRLEPEDIAVYYCQQRSNWPRTFGQGTKVEIKRGLGGLASVDYKDDDDK
modifications: artificial intrabody clone 5
notes: also made as monovalent recombinant scFv in E. coli
B1 was tested. Which “expression of endogenous Bim EL and L isoforms” value [1] did it give?
Its value is “no effect”.

What about the “expression of endogenous PKM2” value [1] of the same molecule?
Its value is “no effect”.

What about the “glycolytic activity of PKM2 (K422R)” value [2] of the same molecule?
Its value is “stimulated the glycolytic activity of PKM2 (K422R) in a concentration-dependent manner”.

And the “activity of PKM2 (K422R) compared with WT PKM2” value ([2]; high concentrations of scFv 5)?
The value was “at least equal to that of WT PKM2”.

What about the “catalytic activity of PKM2 (K270M)” value [3] of the same molecule?
Its value is “increased the catalytic activity”.

What about the “levels of Bax, Bak, Bid, Bim, Puma, Bcl-2, Bcl-xL and Mcl-1” value [4] of the same molecule?
The value was “failed to change the mitochondrial levels”.

And the “clonogenic survival despite BimS expression” value [5]?
Its value is “produced clonogenic survival”.

What about the “protein pulled down from cell extracts” value [6] of the same molecule?
Its value is “pulled down a 55-kD protein now identified as pyruvate kinase M2”.

What about the “rescue from BimS-induced cell death” value [7] of the same molecule?
The value was “failed to rescue”.
